Laboratory results reported in publication PMC314469, “Protein Interaction Networks by Proteome Peptide Scanning” (PLoS Biology, 2004).

T1: Myo5 SH3 (MYO5_YEAST), Q04439
T1 chain: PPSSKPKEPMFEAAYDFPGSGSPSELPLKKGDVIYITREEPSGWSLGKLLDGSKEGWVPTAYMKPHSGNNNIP

T2: Boi1 SH3 (BOI1_YEAST), P38041
T2 chain: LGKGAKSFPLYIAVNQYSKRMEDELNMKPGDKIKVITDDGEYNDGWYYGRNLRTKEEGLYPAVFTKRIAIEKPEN

T3: Boi2 SH3 (BOI2_YEAST), P39969
T3 chain: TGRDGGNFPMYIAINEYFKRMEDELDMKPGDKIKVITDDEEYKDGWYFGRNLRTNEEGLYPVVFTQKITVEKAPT

T4: Rvs167 SH3 (RV167_YEAST), P39743
T4 chain: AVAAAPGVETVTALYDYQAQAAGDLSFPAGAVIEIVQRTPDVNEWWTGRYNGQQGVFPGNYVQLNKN

T5: Yfr024 SH3 (LSB3_YEAST), P43603
T5 chain: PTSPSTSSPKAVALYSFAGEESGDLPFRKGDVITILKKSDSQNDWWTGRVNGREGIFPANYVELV

T6: Yhr016c SH3 (YSC84_YEAST), P32793
T6 chain: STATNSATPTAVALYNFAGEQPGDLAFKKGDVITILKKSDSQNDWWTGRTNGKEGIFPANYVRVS

B1: YNL231C 5-18 (peptide)
chain: FSKKKEAPEDPKNL
B2: YGL195W 1152-1165 (peptide)
chain: FYKEKAKPLEPILD
B3: YLR169W 87-100 (peptide)
chain: FQDYRSSPWSPSRS
B4: YOR389W 154-167 (peptide)
chain: GDHPKGPPPPPPPD
B5: YGL009C 253-266 (peptide)
chain: FQYTKGRPLAPKGA
B6: YPR151C 52-65 (peptide)
chain: FYDFRSLPKVPTTQ
B7: YNL298W 451-464 (peptide)
chain: FQPQRTAPKPPISA
B8: YGR281W 89-102 (peptide)
chain: FLHSKKIPEVPQTD
B9: YMR259C 335-348 (peptide)
chain: FSTKKSKPIRPFVF
B10: YPR095C 191-204 (peptide)
chain: FNGDRLVPTLPTVS
B11: YMR283C 55-68 (peptide)
chain: FLQDRVIPIFPHYP
B12: YER114C 436-449 (peptide)
chain: FVSPRRAPKPPSYP
B13: YPR117W 1311-1324 (peptide)
chain: GDEERFLPNRPHYE
B14: YML104C 41-54 (peptide)
chain: FVFFKSLPDLPKPQ
B15: YOL113W 305-318 (peptide)
chain: FRPHRLAPSAPATK
B16: YDL172C 130-143 (peptide)
chain: FLLKKMFPAPPLPT

The binders below were run against Sho1 SH3 (SHO1_YEAST), P40073 (assay: SPOT array).
Sequence of Sho1 SH3 (SHO1_YEAST), P40073 (P40073 295-366): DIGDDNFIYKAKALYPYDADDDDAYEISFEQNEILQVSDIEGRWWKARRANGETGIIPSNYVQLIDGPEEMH

normalised SPOT signal, Boehringer light units (BLU); mean over the file's lines of this peptide	Binder
42.3	B1
62.7	B2
953	B3
28.1	B4
66.9	B5
30200	B6
39.8	B7
1190	B8
182	B9
40	B10
4.9	B11
96.2	B12
37.9	B13
35800	B14
44.7	B15
149	B16

Target: T1, Myo5 SH3 (MYO5_YEAST), Q04439
Assay: SPOT array

normalised SPOT signal, Boehringer light units (BLU); mean over the file's lines of this peptide	Binder
148	B1
87.7	B2
264	B3
40100	B4
235	B5
337	B6
88300	B7
288	B8
378	B9
161	B10
261	B11
1580	B12
126	B13
860	B14
1410	B15
23700	B16

Target: T2, Boi1 SH3 (BOI1_YEAST), P38041
Assay: SPOT array

normalised SPOT signal, Boehringer light units (BLU); mean over the file's lines of this peptide	Binder
56.7	B1
80.5	B2
33700	B3
30.8	B4
59.6	B5
4350	B6
4820	B7
37.9	B8
267	B9
132	B10
102	B11
4960	B12
54.3	B13
129	B14
9160	B15
235	B16

Target: T3, Boi2 SH3 (BOI2_YEAST), P39969
Assay: SPOT array

normalised SPOT signal, Boehringer light units (BLU); mean over the file's lines of this peptide	Binder
18.3	B1
27.8	B2
314	B3
1.7	B4
14.9	B5
74.9	B6
19.6	B7
8.2	B8
30.8	B9
190	B10
1.2	B11
13.1	B12
34.4	B13
8.6	B14
26	B15
27.9	B16

Target: T4, Rvs167 SH3 (RV167_YEAST), P39743
Assay: SPOT array

normalised SPOT signal, Boehringer light units (BLU); mean over the file's lines of this peptide	Binder
66.9	B1
25.4	B2
575	B3
54.8	B4
22.3	B5
263	B6
148	B7
15.3	B8
228	B9
2290	B10
72.9	B11
42.1	B12
10.7	B13
179	B14
228	B15
52.4	B16

Target: T5, Yfr024 SH3 (LSB3_YEAST), P43603
Assay: SPOT array

normalised SPOT signal, Boehringer light units (BLU); mean over the file's lines of this peptide	Binder
13.4	B1
0	B2
548	B3
0	B4
190	B5
3030	B6
379	B7
15.3	B8
864	B9
2210	B10
173	B11
826	B12
1300	B13
448	B14
1010	B15
132	B16

Target: T6, Yhr016c SH3 (YSC84_YEAST), P32793
Assay: SPOT array

normalised SPOT signal, Boehringer light units (BLU); mean over the file's lines of this peptide	Binder
21.7	B1
57	B2
221	B3
3.6	B4
42.6	B5
496	B6
21.1	B7
25.6	B8
66.2	B9
750	B10
26.6	B11
70.9	B12
653	B13
80.2	B14
109	B15
40.3	B16
